Source: PMC5226589

Columns and labels:
[1] = biological target: telomere target construct (TCON): HALO-tagged fusion of EGFP, CIB1 and TRF1 (UniProt Q8GY61); experiment: FRET or BRET; FLIM-FRET in live HeLa cells co-transfected with TCON and ECON; lifetime of EGFP (donor) with mCherry (acceptor); blue light 8 mW/cm^2 for 5 min (a similar response after 8 min at 1 mW/cm^2)
[2] = biological target: telomere target construct (TCON): HALO-tagged fusion of EGFP, CIB1 and TRF1 (UniProt Q8GY61)

- average fluorescence lifetime of EGFP (FRET donor on TCON) after 5 min of blue light [1]: 2.06 ns
- mean telomere length (TRF, Southern blot) of co-transfected HeLa cells exposed to blue light over three generations (5.3 Kb Gen-1 to 6.03 Kb Gen-3; without light 5.01 Kb to 4.6 Kb) [2]: 6.03 Kb
Substance: epigenetic effector construct (ECON): HALO-tagged fusion of DNMT3A, CRY2PHR and mCherry (from UniProt Q9Y6K1 1-912)
